In patent US20110086767A1, “MUTANTS OF GLYCOSIDE HYDROLASES AND USES THEREOF FOR SYNTHESIZING COMPLEX OLIGOSACCHARIDES AND DISACCHARIDE INTERMEDIATES” (Institut Pasteur, priority 2008, published 2011):
Substitutions are numbered along the chain they refer to. Names and notes keep the numbering of the source. Like-named read-outs stand apart in the source and are kept apart here.

Columns and labels:
[1] = tested on: OC[C@H]1O[C@@](CO)(O[C@H]2O[C@H](CO)[C@@H](O)[C@H](O)[C@H]2O)[C@@H](O)[C@@H]1O; experiment: Kinetic parameters towards sucrose donor, double mutant A289P-F290I; format: biochemical, Neisseria polysaccharea; settings: other: sucrose donor (0-500 mM), Eadie-Hofstee plot, 30° C., pH 7.0
Procedure: (§1) The double mutants A289P-F290C, A289P-F290I and A289P-F290L were produced and purified, as previously described in Example 1-1. The protein content was determined by the Nanodrop ND-1000 spectrophotometer. These mutants were tested on sucrose alone or supplemented with α-D-GlcpNAc-OAll acceptor, and compared to wtAS and F290K. Assays were performed at 30° C. in 50 mM Tris-HCl buffer, pH=7.0.
(§2) Enzyme assays were carried out in a total volume of 2 mL containing pure enzyme (0.073 mg, 0.153 mg and 0.092 mg when using A289P-F290C, A289P-F2901 and A289P-F290L, respectively).
(§3) Kinetic studies of AS variants were performed in the presence of sucrose (0-500 mM). At regular time intervals (2-5 min), aliquots (200 μL) were removed, heated (95° C., 2 min) and centrifuged (18000 g, 5 min) All the samples were filtered on a 0.22 μm membrane and analyzed using HPLC material previously described. The initial rate of sucrose consumed, corresponding to the initial rate of fructose released, was expressed in mole of fructose released per minute and per gram of enzyme. The kinetic parameters kcat and Km were calculated using Eadie-Hofstee plot.

[2] = tested on: OC[C@H]1O[C@@](CO)(O[C@H]2O[C@H](CO)[C@@H](O)[C@H](O)[C@H]2O)[C@@H](O)[C@@H]1O; experiment: Kinetic parameters towards sucrose donor, double mutant A289P-F290C; format: biochemical, Neisseria polysaccharea; settings: other: sucrose donor (0-500 mM), Eadie-Hofstee plot, 30° C., pH 7.0
Procedure: as §1, §2, §3

[3] = tested on: Neisseria polysaccharea amylosucrase 1G5A (parent SEQ ID NO: 13) variants A289P-F290C, A289P-F290I and A289P-F290L; experiment: Kinetic parameters towards α-D-GlcpNAc-OAll acceptor, the three double mutants stated together; format: biochemical; settings: sucrose 250 mM
Procedure: as §1
(§4) Enzyme assays were carried out in a total volume of 2 mL containing pure enzyme (0.037 mg, 0.076 mg and 0.046 mg when using A289P-F290C, A289P-F2901 and A289P-F290L, respectively).
(§5) The kcat/Km (α-D-GlcpNAc-OAll) value was calculated from the initial rate of formation of desired disaccharide (α-D-Glcp-(1→4)-α-D-GlcpNAc-OAll), corresponding to the initial rate of α-D-GlcpNAc-OAll consumed. As saturation was not achieved with the mutants, efficiency was calculated by linear regression analysis of the velocity versus substrate concentration plot.

[4] = HPLC screening of double-mutant libraries for variants able to glucosylate D-GlcpNAc; format: biochemical; settings: α-D-Glcp-(1→4)-α-D-GlcpNAc (ED) from sucrose and D-GlcpNAc, microplate format
Procedure: (§6) The protocol was established to enable the rapid identification of clones for which D-GlcpNAc glucosylation was improved. To obtain higher amounts of enzymes and facilitate detection of glucosylated compounds upon HPLC screening, mutants were produced in 96-DeepWell Format plates. Storage microplates containing monomutants were thawed and replicated to inoculate a starter culture in 96-well microplates containing, in each well, 150 μL LB medium supplemented with ampicillin (100 μg/mL). After growth for 24 h at 30° C. under agitation (200 rpm), plates were duplicated into 96-Deep Well plates containing, in each well, 1.1 mL LB medium supplemented with ampicillin (100 μg/mL) and IPTG (1 mM) to induce GST-AS expression. Cultures were then grown for 24 h at 30° C. under agitation (200 rpm). Plates were centrifuged (20 min, 3000 g, 4° C.) and the supernatant was removed. The cell pellet was resuspended in 200 μL of lysozyme (0.5 mg/mL), followed by freezing at −80° C. for 8 to 12 h. After thawing at room temperature, 100 μL of sucrose and 100 μL of acceptor (each at a final concentration of 73 mM) were added to each well. Enzymatic reaction was incubated at 30° C. during 24 h under agitation. The DeepWell plates were then centrifuged (20 min, 3000 g, 4° C.) and 300 μL of the supernatant was transferred to a filter micro-plate (PVDF 0.2 μm) to be clarified. Supernatant filtration was carried out by centrifugation of the filter micro-plate (5 min, 2000 g, 4° C.) into a novel microplate for screening.
The method for the expression of the mutant libraries is described in Example 1-1.
Acceptor reaction products were analyzed by HPLC analysis using a C18-AQ column (Bischoff C18, 125×4 mm, 3 μm) kept at room temperature and eluted with 0.6 mL/min of ultra-pure water to detect α-D-Glcp-(1→4)-α-D-GlcpNAc formation (analysis time: 7 min). To evaluate the efficiency of the glucosylation reaction, it was carried out complementary HPLC analyses with a Biorad HPX-87K Carbohydrate Analysis column (maintained at 65° C., and eluted at a flow rate of 0.6 mL/min with ultra-pure water). By this way, it was possible to measure sucrose consumption by RI detection and concomitant α-D-Glcp-(1-4)-α-D-GlcpNAc formation by UV220 nm and determine mutant ability to synthesize the desired disaccharide α-D-Glcp-(1→4)-α-D-GlcpNAc (i.e., % Glucosyl units transferred onto acceptor derivatives=[Glucosyl units transferred onto acceptor derivatives]/[Glucosyl units transferred from initial sucrose]×100)
All clones producing sucrose-utilizing variants were then picked and cultured in 96-well microplates. Following cell lysis, the acceptor reaction in the presence of D-GlcpNAc was then carried out in microplate format. HLPC analysis time for each clone was reduced to 7 min for detection of α-D-Glcp-(1→4)-α-D-GlcpNAc. When disaccharide formation was detected, complementary analyses were performed to determine sucrose consumption and disaccharide formation with more accuracy in order to calculate the glucosylation yield.

[5] = Kinetic parameters towards α-D-GlcpNAc-OAll acceptor; format: biochemical; settings: 250 mM for both sucrose and α-D-GlcpNAc-OAll
Procedure: as §4, §5

[6] = data from ref. 83, cited from earlier work
[7] = HPLC screening of the single-mutant amylosucrase library for glucosylation of D-GlcpNAc; format: biochemical
Procedure: as §6, with “Supernatant filtration was carried out by centrifugation of the filter micro-plate (5 min, 2000 g, 4° C.) into a novel microplate for screening.” left out
Efficiency of the glucosylation reaction was evaluated by HPLC analysis of the acceptor reaction product synthesized when using D-GlcpNAc as acceptor using a Dionex P 680 series pump, a Shodex RI 101 series refractometer, a Dionex UVD 340 UV/Vis detector and an autosampler HTC PAL. […]
For each of the 7 selected positions, 19 single mutants were generated (corresponding to each possible amino acid change). […] Both sucrose consumption and disaccharide formation were determined in order to calculate the glucosylation rate defined as the molar ratio of monoglucosylated acceptor versus/sucrose consumed.

[8] = Kinetic parameters towards sucrose donor; format: biochemical; settings: for V250mM (initial rate of sucrose consumption): 250 mM sucrose; for behaviour (at high concentration): sucrose donor alone
Procedure: as §2, §3

[9] = Glucosylation of α-D-GlcpNAc-OAll by purified F290D, F290K and ASNPwt (146 mM sucrose + 146 mM acceptor); format: biochemical; settings: purified enzyme; Sucrose=Acceptor=146 mM; compared with ASNPwt
Procedure: All assays were performed at 30° C. in 50 mM Tris buffer, pH=7.0. For the acceptor reactions, F290D, F290K and ASNPwt (1G5A) were tested on α-D-GlcpNAc-OAll.
Comparison of products synthesized by wild-type and AS variants. Reactions were performed in the presence of 146 mM sucrose alone or supplemented with 146 mM acceptor. The purified wild-type or mutated GST/AS were employed at 0.5 U/mL. The reactions were stopped by heating at 95° C. for 5 min. The final mixture was centrifuged at 18 000 g for 10 min, filtered on 0.22 μm membrane and analyzed by HPLC, as previously described.
Soluble and insoluble oligosaccharides produced during the reaction were identified by HPAEC using a Dionex Carbo-Pack PA100 column at 30° C. Before analysis, the insoluble fraction was solubilized in KOH at a final total sugar concentration of 10 g/kg. Mobile phase (150 mM NaOH) was set at 1 mL/min flow rate with a sodium acetate gradient (going from 6 to 500 mM within 120 min). Detection was performed using a Dionex ED40 module with a gold working electrode and an Ag/AgCl pH reference. Note that α-D-GlcpNAc-OAll (acceptor) and its derivatives are not oxidable products and thus are not detectable by HPAEC. Sucrose, glucose, fructose, α-D-GlcpNAc-OAll (acceptor) and its derivatives (glucosylation products) were quantified by HPLC, as previously described

## Neisseria polysaccharea amylosucrase 1G5A (parent SEQ ID NO: 13) variant A289P-F290I (Neisseria polysaccharea; A297P/F298I/G545D)
[1]
  Km: 17.2 mM

## Neisseria polysaccharea amylosucrase 1G5A (parent SEQ ID NO: 13) variant A289P-F290C (Neisseria polysaccharea; A297P/F298C/G545D)
[2]
  Km: 18.9 mM

## C=CCO[C@H]1O[C@H](CO)[C@@H](O)[C@H](O)[C@H]1NC(C)=O [α-D-GlcpNAc-OAll, allyl 2-acetamido-2-deoxy-α-D-glucopyranoside]
[3]; three double mutants vs F290K
  increase of catalytic efficiency towards α-D-GlcpNAc-OAll compared to variant F290K: 3 fold
[3]; three double mutants vs wtAS
  increase of catalytic efficiency towards α-D-GlcpNAc-OAll compared to wtAS: ≤ 395 fold

B1: wtAS: Wild type glycoside hydrolase: amylosucrase 1G5A from Neisseria polysaccharea, SEQ ID NO: 13 (protein, listed as Neisseria polysaccharea)
chain: SPNSQYLKTRILDIYTPEQRAGIEKSEDWRQFSRRMDTHFPKLMNELDSVYGNNEALLPMLEMLLAQAWQSYSQRNSSLKDIDIARENNPDWILSNKQVGGVCYVDLFAGDLKGLKDKIPYFQELGLTYLHLMPLFKCPEGKSDGGYAVSSYRDVNPALGTIGDLREVIAALHEAGISAVVDFIFNHTSNEHEWAQRCAAGDPLFDNFYYIFPDRRMPDQYDRTLREIFPDQHPGGFSQLEDGRWVWTTFNSFQWDLNYSNPWVFRAMAGEMLFLANLGVDILRMDAVAFIWKQMGTSCENLPQAHALIRAFNAVMRIAAPAVFFKSEAIVHPDQVVQYIGQDECQIGYNPLQMALLWNTLATREVNLLHQALTYRHNLPEHTAWVNYVRSHDDIGWTFADEDAAYLGISGYDHRQFLNRFFVNRFDGSFARGVPFQYNPSTGDCRVSGTAAALVGLAQDDPHAVDRIKLLYSIALSTGGLPLIYLGDEVGTLNDDDWSQDSNKSDDSRWAHRPRYNEALYAQRNDPSTAAGQIYQDLRHMIAVRQSNPRFDGGRLVTFNTNNKHIIGYIRNNALLAFGNFSEYPQTVTAHTLQAMPFKAHDLIGGKTVSLNQDLTLQPYQVMWLEIA
[4]
  Glusosylation Yield to synthesize ED: 2%
[5]
  V250mM (initial rate of acceptor consumption): 290 µmol/min/g
[6]; 250 mM sucrose
  V250mM (initial rate of sucrose consumption): 900 µmol/min/g
[6]; sucrose donor
  behaviour (at high concentration): saturation
[7]; molar ratio of monoglucosylated acceptor versus sucrose consumed, sucrose and D-GlcpNAc 73 mM each, 30° C., 24 h, microtiter format
  glucosylation rate (formation of α-D-Glcp-(1→4)-D-GlcpNAc): 2%

B2: A289P-F290L: double mutant A289P, F290L of N. polysaccharea amylosucrase (protein)
chain: B1 chain with A289P, F290L
[4]
  Glusosylation Yield to synthesize ED: 100%
[5]
  V250mM (initial rate of acceptor consumption): 67 300 μmol/min/g
[8]
  V250mM (initial rate of sucrose consumption): 1717 µmol/min/g
  behaviour (at high concentration): saturation

B3: A289P-F290I: double mutant A289P, F290I of N. polysaccharea amylosucrase (protein)
chain: B1 chain with A289P, F290I
[4]
  Glusosylation Yield to synthesize ED: 100%
[5]
  V250mM (initial rate of acceptor consumption): 51 400 μmol/min/g
[8]
  V250mM (initial rate of sucrose consumption): 946 µmol/min/g
  behaviour (at high concentration): saturation

B4: F290D: single mutant F290D of N. polysaccharea amylosucrase 1G5A (protein)
chain: B1 chain with F290D
[9]
  times more efficient for α-D-GlcpNAc-OAll glucosylation: 10 times
  times more efficient to form α-D-Glcp-(1→4)-D-GlcpNAc-OAll: 20 times
[7]; acceptor D-GlcpNAc
  increase of glucosylation rate compared to the wild type: 45 fold

B5: A289P-F290C: double mutant A289P, F290C of N. polysaccharea amylosucrase (protein)
chain: B1 chain with A289P, F290C
[4]
  Glusosylation Yield to synthesize ED: 100%
[5]
  V250mM (initial rate of acceptor consumption): 50 000 μmol/min/g
[8]
  V250mM (initial rate of sucrose consumption): 2186 µmol/min/g
  behaviour (at high concentration): saturation
